Paper PMC11601597 (bioRxiv, 2024)

Legend:
[1] = target: K. pneumoniae OqxB (K. pneumoniae); assay: crystal structure
[2] = target: K. pneumoniae OqxB (K. pneumoniae); assay: cryo-EM structure
cryo-EM structure = target: the molecule itself; assay: cryo-EM structure
crystal structure = target: the molecule itself; assay: crystal structure

K. pneumoniae OqxB (natural protein)
stoichiometry N [1]: 3
stoichiometry N [2]: 3

B1: E. coli AcrB V612F (natural protein)
chain: MPNFFIDRPIFAWVIAIIIMLAGGLAILKLPVAQYPTIAPPAVTISASYPGADAKTVQDTVTQVIEQNMNGIDNLMYMSSNSDSTGTVQITLTFESGTDADIAQVQVQNKLQLAMPLLPQEVQQQGVSVEKSSSSFLMVVGVINTDGTMTQEDISDYVAANMKDAISRTSGVGDVQLFGSQYAMRIWMNPNELNKFQLTPVDVITAIKAQNAQVAAGQLGGTPPVKGQQLNASIIAQTRLTSTEEFGKILLKVNQDGSRVLLRDVAKIELGGENYDIIAEFNGQPASGLGIKLATGANALDTAAAIRAELAKMEPFFPSGLKIVYPYDTTPFVKISIHEVVKTLVEAIILVFLVMYLFLQNFRATLIPTIAVPVVLLGTFAVLAAFGFSINTLTMFGMVLAIGLLVDDAIVVVENVERVMAEEGLPPKEATRKSMGQIQGALVGIAMVLSAVFVPMAFFGGSTGAIYRQFSITIVSAMALSVLVALILTPALCATMLKPIAKGDHGEGKKGFFGWFNRMFEKSTHHYTDSVGGILRSTGRYLVLYLIIVVGMAYLFVRLPSSFLPDEDQGVFMTMVQLPAGATQERTQKVLNEVTHYYLTKEKNNVESVFAFNGFGFAGRGQNTGIAFVSLKDWADRPGEENKVEAITMRATRAFSQIKDAMVFAFNLPAIVELGTATGFDFELIDQAGLGHEKLTQARNQLLAEAAKHPDMLTSVRPNGLEDTPQFKIDIDQEKAQALGVSINDINTTLGAAWGGSYVNDFIDRGRVKKVYVMSEAKYRMLPDDIGDWYVRAADGQMVPFSAFSSSRWEYGSPRLERYNGLPSMEILGQAAPGKSTGEAMELMEQLASKLPTGVGYDWTGMSYQERLSGNQAPSLYAISLIVVFLCLAALYESWSIPFSVMLVVPLGVIGALLAATFRGLTNDVYFQVGLLTTIGLSAKNAILIVEFAKDLMDKEGKGLIEATLDAVRMRLRPILMTSLAFILGVMPLVISTGAGSGAQNAVGTGVMGGMVTATVLAIFFVPVFFVVVRRRFSRKNEDIEHSHTVDHH
stoichiometry N (cryo-EM structure): 3

B2: E. coli AcrB V612N (natural protein)
chain: MPNFFIDRPIFAWVIAIIIMLAGGLAILKLPVAQYPTIAPPAVTISASYPGADAKTVQDTVTQVIEQNMNGIDNLMYMSSNSDSTGTVQITLTFESGTDADIAQVQVQNKLQLAMPLLPQEVQQQGVSVEKSSSSFLMVVGVINTDGTMTQEDISDYVAANMKDAISRTSGVGDVQLFGSQYAMRIWMNPNELNKFQLTPVDVITAIKAQNAQVAAGQLGGTPPVKGQQLNASIIAQTRLTSTEEFGKILLKVNQDGSRVLLRDVAKIELGGENYDIIAEFNGQPASGLGIKLATGANALDTAAAIRAELAKMEPFFPSGLKIVYPYDTTPFVKISIHEVVKTLVEAIILVFLVMYLFLQNFRATLIPTIAVPVVLLGTFAVLAAFGFSINTLTMFGMVLAIGLLVDDAIVVVENVERVMAEEGLPPKEATRKSMGQIQGALVGIAMVLSAVFVPMAFFGGSTGAIYRQFSITIVSAMALSVLVALILTPALCATMLKPIAKGDHGEGKKGFFGWFNRMFEKSTHHYTDSVGGILRSTGRYLVLYLIIVVGMAYLFVRLPSSFLPDEDQGVFMTMVQLPAGATQERTQKVLNEVTHYYLTKEKNNVESVFANNGFGFAGRGQNTGIAFVSLKDWADRPGEENKVEAITMRATRAFSQIKDAMVFAFNLPAIVELGTATGFDFELIDQAGLGHEKLTQARNQLLAEAAKHPDMLTSVRPNGLEDTPQFKIDIDQEKAQALGVSINDINTTLGAAWGGSYVNDFIDRGRVKKVYVMSEAKYRMLPDDIGDWYVRAADGQMVPFSAFSSSRWEYGSPRLERYNGLPSMEILGQAAPGKSTGEAMELMEQLASKLPTGVGYDWTGMSYQERLSGNQAPSLYAISLIVVFLCLAALYESWSIPFSVMLVVPLGVIGALLAATFRGLTNDVYFQVGLLTTIGLSAKNAILIVEFAKDLMDKEGKGLIEATLDAVRMRLRPILMTSLAFILGVMPLVISTGAGSGAQNAVGTGVMGGMVTATVLAIFFVPVFFVVVRRRFSRKNEDIEHSHTVDHH
stoichiometry N (crystal structure): 3

B3: E. coli AcrB V612W (natural protein)
chain: MPNFFIDRPIFAWVIAIIIMLAGGLAILKLPVAQYPTIAPPAVTISASYPGADAKTVQDTVTQVIEQNMNGIDNLMYMSSNSDSTGTVQITLTFESGTDADIAQVQVQNKLQLAMPLLPQEVQQQGVSVEKSSSSFLMVVGVINTDGTMTQEDISDYVAANMKDAISRTSGVGDVQLFGSQYAMRIWMNPNELNKFQLTPVDVITAIKAQNAQVAAGQLGGTPPVKGQQLNASIIAQTRLTSTEEFGKILLKVNQDGSRVLLRDVAKIELGGENYDIIAEFNGQPASGLGIKLATGANALDTAAAIRAELAKMEPFFPSGLKIVYPYDTTPFVKISIHEVVKTLVEAIILVFLVMYLFLQNFRATLIPTIAVPVVLLGTFAVLAAFGFSINTLTMFGMVLAIGLLVDDAIVVVENVERVMAEEGLPPKEATRKSMGQIQGALVGIAMVLSAVFVPMAFFGGSTGAIYRQFSITIVSAMALSVLVALILTPALCATMLKPIAKGDHGEGKKGFFGWFNRMFEKSTHHYTDSVGGILRSTGRYLVLYLIIVVGMAYLFVRLPSSFLPDEDQGVFMTMVQLPAGATQERTQKVLNEVTHYYLTKEKNNVESVFAWNGFGFAGRGQNTGIAFVSLKDWADRPGEENKVEAITMRATRAFSQIKDAMVFAFNLPAIVELGTATGFDFELIDQAGLGHEKLTQARNQLLAEAAKHPDMLTSVRPNGLEDTPQFKIDIDQEKAQALGVSINDINTTLGAAWGGSYVNDFIDRGRVKKVYVMSEAKYRMLPDDIGDWYVRAADGQMVPFSAFSSSRWEYGSPRLERYNGLPSMEILGQAAPGKSTGEAMELMEQLASKLPTGVGYDWTGMSYQERLSGNQAPSLYAISLIVVFLCLAALYESWSIPFSVMLVVPLGVIGALLAATFRGLTNDVYFQVGLLTTIGLSAKNAILIVEFAKDLMDKEGKGLIEATLDAVRMRLRPILMTSLAFILGVMPLVISTGAGSGAQNAVGTGVMGGMVTATVLAIFFVPVFFVVVRRRFSRKNEDIEHSHTVDHH
stoichiometry N (cryo-EM structure): 3
